This is an account of results in article PMC5519134.

In this experiment the target is FZD2-CRD-Fc, recombinant human Frizzled 2 cysteine-rich domain, Fc-tagged (human). Briefly: BLI.

Take “TcdB_(1-1830), truncated TcdB lacking the CROPs region (from UniProt P18177 1-1830) (domain or fragment)”: the Kd was determined as 0.017 µM.

In general, Kd refers to the constant that tells how readily two partners part at equilibrium.
